# Where a chain is given by its changes, count along the chain named. Names may count otherwise.
# B1: target 1 insG 3' of 10,insG 3' of 8 (mixed)
# RNA 1: CACCCGUGCAAAAAUGCAGGGGUCUAAAACUGAGCGGAUAACCUCUCUAUGG
# RNA 2: GGGAAUGGAUCCACAUCUACGAAUUCGUACCAUAGAGAGGUUGAUGCCGCUCACCGAGAUCGGAAGAGCACACGU
# B2: target 1 C6A,U19G (mixed)
# RNA 1: B1 RNA 1
# RNA 2: GGGAAUGGAUCCACAUCUACGAAUUCGUACCAGAGAGAGGUUAUCAGCUCACCGAGAUCGGAAGAGCACACGU
# B3: target 1 insG 3' of 6,insG 3' of 4 (mixed)
# RNA 1: B1 RNA 1
# RNA 2: B1 RNA 2 with G43A, A44U, U45C, G46C, C47G, C48G, G49C, C50G
# B4: target 1 complement block 14-16 (mixed)
# RNA 1: B1 RNA 1
# RNA 2: B2 RNA 2 with G33U, A36U, G37C, A38U, A46C
# B5: target 1 insG 3' of 9,insC 3' of 1 (mixed)
# RNA 1: B1 RNA 1
# RNA 2: B1 RNA 2 with G43A, A44G, G46C, C48G, G49C, C50U, U51C, C52A, A53C
# B6: target 1 insG 3' of 19,insA 3' of 7 (mixed)
# RNA 1: B1 RNA 1
# RNA 2: GGGAAUGGAUCCACAUCUACGAAUUCGUACCAUGAGAGAGGUUAUCACGCUCACCGAGAUCGGAAGAGCACACGU
# B7: target 1 insA 3' of 19,insA 3' of 4 (mixed)
# RNA 1: B1 RNA 1
# RNA 2: B6 RNA 2 with G34A, A47C, C48G, G49C, C50A
# B8: target 1 U11C,G15A (mixed)
# RNA 1: B1 RNA 1
# RNA 2: B2 RNA 2 with G33U, G37A, U41C, A46C
# B9: target 1 insC 3' of 14,insA 3' of 7 (mixed)
# RNA 1: B1 RNA 1
# RNA 2: B1 RNA 2 with G39C, U41G, G43U, G46C, C47A
# B10: target 1 insU 3' of 13 (mixed)
# RNA 1: B1 RNA 1
# RNA 2: GGGAAUGGAUCCACAUCUACGAAUUCGUACCAUAGAGAGUGUUAUCCGCUCACCGAGAUCGGAAGAGCACACGU
# B11: target 1 insG 3' of 14,insC 3' of 5 (mixed)
# RNA 1: B1 RNA 1
# RNA 2: B1 RNA 2 with U41G, G43U, G46C, C48G, G49C
# B12: target 1 C2U,C21A (mixed)
# RNA 1: B1 RNA 1
# RNA 2: B2 RNA 2 with C31A, G33U, A46C, C50U
# B13: target 1 insA 3' of 22,insA 3' of 8 (mixed)
# RNA 1: B1 RNA 1
# RNA 2: B6 RNA 2 with C31A, A32C, U33A, G34U, C46A, A47C
# B14: target 1 insU 3' of 13,insU 3' of 7 (mixed)
# RNA 1: B1 RNA 1
# RNA 2: B1 RNA 2 with G40U, U41G, G43U, G46C, C47U
# B15: target 1 insG 3' of 8,insG 3' of 2 (mixed)
# RNA 1: B1 RNA 1
# RNA 2: B1 RNA 2 with G43A, A44U, U45G, G46C, C48G, G49C, C50U, U51C, C52G
# Molecular target: T1, EsCas13d, nuclease-dead (Eubacterium siraeum, UniProt B0MS50, R295A;H300A;R849A;H854A)
# T1 sequence: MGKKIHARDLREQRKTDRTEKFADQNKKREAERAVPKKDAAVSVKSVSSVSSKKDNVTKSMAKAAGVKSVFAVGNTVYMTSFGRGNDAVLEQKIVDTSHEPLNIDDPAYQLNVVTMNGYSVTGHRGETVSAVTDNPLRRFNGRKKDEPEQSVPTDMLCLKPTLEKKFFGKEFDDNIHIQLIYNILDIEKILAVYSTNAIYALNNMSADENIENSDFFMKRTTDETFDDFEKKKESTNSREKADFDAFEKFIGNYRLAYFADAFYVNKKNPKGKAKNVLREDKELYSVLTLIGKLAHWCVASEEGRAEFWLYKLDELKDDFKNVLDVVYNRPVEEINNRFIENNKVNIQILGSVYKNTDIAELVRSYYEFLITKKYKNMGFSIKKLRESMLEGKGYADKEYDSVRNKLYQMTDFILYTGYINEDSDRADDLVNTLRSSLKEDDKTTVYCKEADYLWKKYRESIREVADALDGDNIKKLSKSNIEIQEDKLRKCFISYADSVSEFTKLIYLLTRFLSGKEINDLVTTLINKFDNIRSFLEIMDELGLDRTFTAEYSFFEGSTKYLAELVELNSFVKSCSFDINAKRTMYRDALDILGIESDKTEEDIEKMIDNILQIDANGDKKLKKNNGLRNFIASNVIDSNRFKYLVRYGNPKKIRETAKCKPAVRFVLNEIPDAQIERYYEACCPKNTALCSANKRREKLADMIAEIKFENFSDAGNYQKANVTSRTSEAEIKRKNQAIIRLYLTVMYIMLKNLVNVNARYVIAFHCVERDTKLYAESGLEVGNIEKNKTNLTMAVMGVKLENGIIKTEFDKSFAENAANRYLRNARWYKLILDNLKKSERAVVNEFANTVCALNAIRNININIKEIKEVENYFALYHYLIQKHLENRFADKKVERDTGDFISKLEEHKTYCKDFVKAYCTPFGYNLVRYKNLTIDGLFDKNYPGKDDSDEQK
# Test: crRNA (strand 1, pre-loaded); Mg2+; 40 mM Tris-HCl pH 7.5, 150 mM NaCl, 6 mM MgCl2, 1 mM DTT, 0.1% Tween-20, 0.2 mg/ml BSA; 25 C; 10 min per concentration, then washed
# Details: tags: His6-TwinStrep-SUMO cleaved; N-terminal SNAP kept (SNAP-Surface 488); label: 3' end held by stalled T7 RNA polymerase
row,Binder,Kd [nM]
1,B1,21.8 ± 0.7
2,B2,46 ± 4
3,B3,8 ± 0.4
4,B4,61 ± 9
5,B5,17.4 ± 1.2
6,B6,36.7 ± 2.9
7,B7,16 ± 1.3
8,B8,27 ± 3.3
9,B9,47 ± 10
10,B10,11.4 ± 1.5
11,B11,12.1 ± 1
12,B12,28.1 ± 3.1
13,B13,20.9 ± 1.3
14,B14,13.7 ± 0.8
15,B15,13.1 ± 0.6

# From PMC10786891, “Massively parallel profiling of RNA-targeting CRISPR-Cas13d”
